Source: patent publication US20240383988A1

Tests used:
human EGFR (human) [1] = target: human EGFR (human) (UniProt P00533); assay: kinetics table of FIG. 2 (SPR is told in paragraph 123 for the other clones of the table); column head 10^-4 (s-1)
human EGFR (human) [2] = target: human EGFR (human) (UniProt P00533); assay: kinetics table of FIG. 2 (SPR is told in paragraph 123 for the other clones of the table); column head 10^5 (s-1M-1)

koff (human EGFR (human) [1]): 5e-05 s⁻¹ | kon (human EGFR (human) [2]): 280000 M⁻¹ s⁻¹
B1: ER-2b (antibody, part only; not given: common light chain, V domains shown, part only)
VH: EVQLVESGGGLVQPGGSLRLSCAASGFNIYYAAMHWVRQAPGKGLEWVAFISPYYSYTSYADSVKGRFTISADTSKNTAYLQMNSLRAEDTAVYYCARYFHSSWYESSSPRAYYPGMDYWGQGTLVTVSS
